US20250000936A1, “TREATMENT OF GEOGRAPHIC ATROPHY” (Apellis Pharmaceuticals, Inc., priority 2021, published 2025)
Several values for one entry are separate records, joined by “and”; a condition that tells them apart may be missing. Identical values can stand only once.

Key:
[1] = system: patients with geographic atrophy (GA) secondary to age-related macular degeneration (AMD); test: OAKS Phase 3 study: safety; conditions: for Patients with new onset fellow eye eAMD: through 18 months
Description: All randomized subjects returned every month to the clinical site for assessments and additional pegcetacoplan or sham injections according to their randomization scheme until Month 12. From Month 12 onwards, subjects return to the clinical site based on their randomized treatment schedule (monthly or EOM) and follow the treatment regimen and assessments outlined in the Visit Schedule until Month 24. Safety was assessed throughout the study by a number of evaluations including: monitoring of AEs, preinjection and postinjection monitoring, blood and urine samples collected, physical examination, vital signs, and follow-up phone calls. Blood samples were also be collected for anti-therapeutic antibodies, genotyping, and clinical repository (if the subject consented to this portion).
The Safety set consisted of all subjects randomized who received at least one injection of pegcetacoplan or sham. Subjects were analyzed according to the actual treatment received. […] This population was used for all safety analyses.

[2] = system: patients with geographic atrophy (GA) secondary to age-related macular degeneration (AMD); test: OAKS Phase 3 study: GA lesion growth in study eye by fundus autofluorescence; type: in vivo, human
Description: This Example describes 12-month results from two Phase 3 multi-center, randomized, double-masked, sham-controlled studies (“DERBY” and “OAKS”) to compare the efficacy and safety of intravitreal APL-2 (pegcetacoplan, also referred to as “Study Drug” in this Example) therapy with sham injections in patients with geographic atrophy (GA) secondary to age-related macular degeneration (AMD).
To participate in the studies, subjects must have been diagnosed with GA of the macula secondary to AMD in the study eye. At screening, male and female subjects were required to fulfill all of the following inclusion criteria to be eligible for participation in the study. If both eyes met the inclusion criteria, the eye with the worst normal luminance visual acuity at the screening visit was designated as the study eye. If both eyes had the same visual acuity, the right eye was selected as the study eye. Ocular-specific inclusion criteria applied to the study eye only, unless otherwise specified.
The design of the DERBY and OAKS studies are schematically depicted in FIG. 2. […] As part of the screening process, the reading center evaluated FAF, OCT, Digital Color Fundus Photograph (DCFP), Near Infrared Reflectance (NIR), and fluorescein angiography (FA) to provide an objective assessment of subject eligibility. […]
Subjects were analyzed in the treatment arm assigned at randomization. […]

[3] = PEOM (every other month), 12 months
[4] = PEOM (every other month), 18 months
[5] = PEOM (every other month), N=212

## Poly(oxy-1,2-ethanediyl), α-hydro-ω-hydroxy-, 15,15′-diester with N-acetyl-L-isoleucyl-L-cysteinyl-L-valyl-1-methyl-L-tryptophyl-L-glutaminyl-L-α-aspartyl-L-tryptophylglycyl-L-alanyl-L-histidyl-L-arginyl-L-cysteinyl-L-threonyl-2-[2-(2-aminoethoxy) ethoxy]acetyl-N^6-carboxy-L-lysinamide cyclic (2->12)-(disulfide) [pegcetacoplan]
[1]; [3]
  All TEAEs, Total events, M: 721
  All TEAEs, patients: 160 (75.5%) n (%)
  Cases of MNV (FA) detected by reading center but not reported by Investigator as AE: 3
  Non-ocular TEAEs, Patients: 127 (59 9%) n (%)
  Non-ocular TEAEs, events M: 412
  Ocular TEAE in study eye Conjunctival haemorrhage, events M: 16
  Ocular TEAE in study eye Conjunctival haemorrhage, patients: 13 (6.1%) n (%)
  Ocular TEAE in study eye Eye Pain, events M: 14
  Ocular TEAE in study eye Eye Pain, patients: 12 (5.7%) n (%)
  Ocular TEAE in study eye Vitreous floaters, events M: 20
  Ocular TEAE in study eye Vitreous floaters, patients: 15 (7.1%) n (%)
  Ocular TEAEs in study eye, Patients: 97 (45.8%) n (%) and 97 (45.8) n (%)
  Ocular TEAEs in study eye, events M: 208
  Serious ocular TEAE Endophthalmitis, events M: 3
  Serious ocular TEAE Endophthalmitis, patients: 3 (1.4%) n (%)
  Serious ocular TEAE Macular hole, patients: 0 n (%)
  Serious ocular TEAE Optic ischemic neuropathy, patients: 0 n (%)
  Serious ocular TEAE Papilledema, patients: 0 n (%)
  Serious ocular TEAE Retinal detachment, events M: 1
  Serious ocular TEAE Retinal detachment, patients: 1 (0.5%) n (%)
  Serious ocular TEAEs in the study eye, events M: 4
  Serious ocular TEAEs in the study eye, patients: 4 (1.9%) n (%)
  Sum of investigator-determined eAMD and reading center cases not reported by investigators: (6.1%)
[1]; PEOM (every other month), 12 months, count
  Sum of investigator-determined eAMD and reading center cases not reported by investigators: 13
[1]; [4]
  All TEAEs, Total events, M: 965
  All TEAEs, patients: 177 (83.5%) n (%)
  Non-ocular TEAEs, M: 567
  Non-ocular TEAEs, Patients: 158 (74.5%) n (%)
  Ocular TEAEs in study eye, M: 270
  Ocular TEAEs in study eye, Patients: 114 (53.8%) n (%)
[1]; [5]
  Discontinued study prior to Month 12, reason Adverse Event: 5 (2.4%) n (%)
  Discontinued study prior to Month 12, reason Death: 3 (1.4%) n (%)
  Discontinued study prior to Month 18, reason Adverse event: 4 (1.9%) n (%)
  Discontinued study prior to Month 18, reason Death: 7 (3.3%) n (%)
[1]; PEOM (every other month), 173 patients without baseline fellow eye CNV
  Patients with new onset fellow eye eAMD: 5 (2.9%) n (%)
[1]; PM (monthly), 12 months
  All TEAEs, Total events, M: 751
  All TEAEs, patients: 170 (79.8%) n (%)
  Cases of MNV (FA) detected by reading center but not reported by Investigator as AE: 2
  Non-ocular TEAEs, Patients: 136 (63.8%) n (%)
  Non-ocular TEAEs, events M: 390
  Ocular TEAE in study eye Conjunctival haemorrhage, events M: 30
  Ocular TEAE in study eye Conjunctival haemorrhage, patients: 18 (8.5%) n (%)
  Ocular TEAE in study eye Eye Pain, events M: 17
  Ocular TEAE in study eye Eye Pain, patients: 15 (7.0%) n (%)
  Ocular TEAE in study eye Vitreous floaters, events M: 10
  Ocular TEAE in study eye Vitreous floaters, patients: 9 (4.2%) n (%)
  Ocular TEAEs in study eye, Patients: 108 (50.7%) n (%)
  Ocular TEAEs in study eye, events M: 256
  Serious ocular TEAE Dry AMD, patients: 0 n (%)
  Serious ocular TEAE Endophthalmitis, events M: 3
  Serious ocular TEAE Endophthalmitis, patients: 1 (0.5%) n (%)
  Serious ocular TEAE Macular hole, patients: 0 n (%)
  Serious ocular TEAE Optic ischemic neuropathy, events M: 3
  Serious ocular TEAE Optic ischemic neuropathy, patients: 1 (0.5%) n (%)
  Serious ocular TEAE Papilledema, events M: 3
  Serious ocular TEAE Papilledema, patients: 1 (0.5%) n (%)
  Serious ocular TEAE Retinal detachment, patients: 0 n (%)
  Serious ocular TEAE Vitritis, patients: 0 n (%)
  Serious ocular TEAEs in the study eye, events M: 3
  Serious ocular TEAEs in the study eye, patients: 3 (1.4%) n (%)
  Sum of investigator-determined eAMD and reading center cases not reported by investigators: (6.1%)
[1]; PM (monthly), 12 months, count
  Sum of investigator-determined eAMD and reading center cases not reported by investigators: 13
[1]; PM (monthly), 18 months
  All TEAEs, Total events, M: 1037
  All TEAEs, patients: 185 (86.9%) n (%)
  Non-ocular TEAEs, M: 573
  Non-ocular TEAEs, Patients: 152 (71.4%) n (%)
  Ocular TEAEs in study eye, M: 325
  Ocular TEAEs in study eye, Patients: 126 (59.2%) n (%)
[1]; PM (monthly), N=213
  Discontinued study prior to Month 12, reason Adverse Event: 3 (1.4%) n (%)
  Discontinued study prior to Month 12, reason Death: 7 (3.3%) n (%)
  Discontinued study prior to Month 18, reason Adverse event: 6 (2.8%) n (%)
  Discontinued study prior to Month 18, reason Death: 12 (5.6%) n (%)
[1]; PM (monthly), 168 patients without baseline fellow eye CNV
  Patients with new onset fellow eye eAMD: 8 (4.8%) n (%)
[1]; every other month, month 18, 15/212 patients
  patients with study eye investigator-determined new-onset exudative AMD: 7.1%
[1]; monthly, month 18, 16/213 patients
  patients with study eye investigator-determined new-onset exudative AMD: 7.5%
[2]; distance ≤250 microns, every other month, p=0.0008
  reduction in GA lesion growth versus sham: 19%
[2]; lesion distance to foveal center point >250 microns, monthly, p=0.0012
  reduction in GA lesion growth versus sham: 30%
